Measured values as given in patent publication US20080207488A1, “Method for Detecting Peptides Comprising a Cross-B Structure” (priority 2005, published 2008).

Tests used:
tPA [1] = target: T1, tPA (Homo sapiens, UniProt P00750); experiment: ELISA, binding of β2GPI to immobilized tPA
T1 construct: purchased Boehringer-Ingelheim (Actilyse, Alteplase)
Method: (§1) Binding of purified human factor XII from plasma (Calbiochem) or of purified recombinant human tPA to β2GPI purified from human plasma, or to recombinant human β2GPI was tested in an ELISA. Ten μg of factor XII or tPA in PBS was coated onto wells of a Costar 2595 ELISA plate (Cambridge, USA) and incubated with concentration series of the two β2GPI preparations. Binding of β2GPI was assessed with monoclonal antibody 2B2^13.

[2] = ThT fluorescence of CpG-ODN-protein mixtures; assay type: physicochemical; conditions: 1 mg ml^−1 protein exposed to 21.4 μg ml^−1 CPG-ODN (FIG. 4F)
Method: (§2) Fluorescence of ThT-protein/peptide adducts was measured as follows. […] Fluorescence was measured at 485 nm upon excitation at 435 nm. Background signals from buffer, buffer with ThT and protein/peptide solution without ThT were subtracted from corresponding measurements with protein solution incubated with ThT. […] Fluorescence was measured in triplicate on a Hitachi F-4500 fluorescence spectrophotometer (Ltd., Tokyo, Japan).
Enhancement of ThT fluorescence was measured similarly as described above. […]

factor XII = target: T2, factor XII (Homo sapiens, UniProt P00748); experiment: ELISA, binding of β2GPI to immobilized factor XII
T2 construct: purchased Calbiochem, EMD Biosciences #233490
T2 sequence (P00748 20-615): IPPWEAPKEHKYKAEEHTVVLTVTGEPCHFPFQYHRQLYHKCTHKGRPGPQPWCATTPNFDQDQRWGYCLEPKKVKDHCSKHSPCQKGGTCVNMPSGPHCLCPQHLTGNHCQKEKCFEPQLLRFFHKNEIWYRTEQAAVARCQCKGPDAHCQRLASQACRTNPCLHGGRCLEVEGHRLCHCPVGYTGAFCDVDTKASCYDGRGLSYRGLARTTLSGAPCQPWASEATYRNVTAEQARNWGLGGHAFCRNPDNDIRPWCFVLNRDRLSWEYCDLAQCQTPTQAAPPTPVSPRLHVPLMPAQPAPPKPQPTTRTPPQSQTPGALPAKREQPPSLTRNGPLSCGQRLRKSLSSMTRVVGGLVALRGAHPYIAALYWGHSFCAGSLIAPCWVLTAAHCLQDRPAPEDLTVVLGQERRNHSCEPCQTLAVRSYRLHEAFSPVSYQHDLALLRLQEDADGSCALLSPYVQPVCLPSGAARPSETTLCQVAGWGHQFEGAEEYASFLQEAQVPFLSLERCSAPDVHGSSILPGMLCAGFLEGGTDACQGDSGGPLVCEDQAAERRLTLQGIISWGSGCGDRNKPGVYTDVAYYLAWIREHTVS
Method: as §1

[3] = ThT fluorescence of β2GPI with or without CL vesicles or DXS500k; assay type: physicochemical; conditions: 25 μg ml^−1 β2GPI, 100 μM CL vesicles or 250 μg ml^−1 DXS
Method: ThT fluorescence of β2GPI was measured as follows. […] CL vesicles were prepared according to an established procedure. Briefly, CL was dried under a stream of nitrogen. The lipids were resuspended to a concentration of 10 mg ml^−1 in 25 mM Tris-HCl, pH 7.3, 150 mM NaCl by vigorous agitation, using a vortex. In the ThT fluorescence assay, fluorescence of β2GPI in buffer, of CL or DXS500k in buffer, of buffer and ThT alone, and of β2GPI-CL adducts and β2GPI-DXS500k adducts, with or without ThT, was recorded as described above (section ThT fluorescence). In addition, TEM images were recorded with CL, β2GPI from human plasma, with or without CL, and with recombinant β2GPI, as described^1.

[4] = ThT fluorescence of LPS-protein mixtures; assay type: physicochemical; conditions: 1 mg ml^−1 protein exposed to 600 μg ml^−1 LPS (FIG. 4C)
Method: as §2
Subsequently, the ability to enhance ThT fluorescence was determined with 40× diluted solution, as described above. […]

[5] = tested on: anti-β2GPI auto-antibodies; experiment: Interference with binding of anti-β2GPI autoantibodies to immobilized β2GPI; set-up: species or system human; conditions: antibodies from Anti-phospholipid syndrome patients
Method: When plasma derived β2GPI is coated onto hydrophilic ELISA plates, anti-β2GPI auto-antibodies isolated from plasma of antiphospholipid syndrome auto-immune patients can bind^14. To study the influence of co-incubations of the coated β2GPI with the antibodies together with plasma β2GPI or recombinant β2GPI, concentration series of β2GPI were added to the patient antibodies. Subsequently, binding of the antibodies to coated β2GPI was determined.

tPA [6] = target: T1, tPA; experiment: Plasminogen-activation assay (tPA-mediated Plg to Pls, S-2251); assay type: biochemical; conditions: 100 μg ml^−1 protein
Method: Plasmin (Pls) activity was assayed as described^7. Peptides and proteins that were tested for their stimulatory ability were regularly used at 100 μg ml^−1. […] Chromogenic substrate S-2251 (Chromogenix, Instrumentation Laboratory SpA, Milano, Italy) was used to measure Pls activity. Conversion of zymogen factor XII (#233490, Calbiochem, EMD Biosciences, Inc., San Diego, Calif.) to proteolytically active factor XII (factor XIIa) was assayed by measurement of the conversion of chromogenic substrate Chromozym-PK (Roche Diagnostics, Almere, The Netherlands) by kallikrein. Chromozym-PK was used at a concentration of 0.3 mM. Factor XII, human plasma prekallikrein (#529583, Calbiochem) and human plasma cofactor high-molecular weight kininogen (#422686, Calbiochem) were used at concentrations of 1 μg ml^−1. […] Assays were performed using microtiter plates (Costar, Cambridge, Mass., USA). Peptides and proteins were tested for their ability to activate factor XII. […] The conversion of Chromozym-PK was recorded kinetically at 37° C. for at least 60 minutes. […] With S-2222, activation of factor XII in plasma was measured, using 60% v/v plasma, diluted with substrate and H2O with or without potential cofactor. Furthermore, auto-activation of factor XII was measured by incubating 53 μg ml^−1 purified factor XII in 50 mM Tris-HCl buffer pH 7.5 with 1 mM EDTA and 0.001% v/v Triton-X100, with S-2222 and H2O with or without potential cofactor.
Formulated protein therapeutics were obtained from the local hospital pharmacy and were used as supplied by the manufacturers. […] Enhancement in fluorescence of ThT and Congo red was measured with all formulated protein therapeutics. […]
To prepare structurally altered ovalbumin (OVA) with amyloid cross-β structure conformation, purified OVA (Sigma, A-7641, lot 071k7094) was heated to 85° C. […] Native OVA (nOVA) and heat-denatured OVA (dOVA) were tested in the ThT fluorescence assay and in the Plg-activation assay. In the fluorescence assay and in the Plg-activation assay, 25 and 100 μg ml^−1 nOVA and dOVA were tested, respectively. […]

T1 sequence (P00750 36-562): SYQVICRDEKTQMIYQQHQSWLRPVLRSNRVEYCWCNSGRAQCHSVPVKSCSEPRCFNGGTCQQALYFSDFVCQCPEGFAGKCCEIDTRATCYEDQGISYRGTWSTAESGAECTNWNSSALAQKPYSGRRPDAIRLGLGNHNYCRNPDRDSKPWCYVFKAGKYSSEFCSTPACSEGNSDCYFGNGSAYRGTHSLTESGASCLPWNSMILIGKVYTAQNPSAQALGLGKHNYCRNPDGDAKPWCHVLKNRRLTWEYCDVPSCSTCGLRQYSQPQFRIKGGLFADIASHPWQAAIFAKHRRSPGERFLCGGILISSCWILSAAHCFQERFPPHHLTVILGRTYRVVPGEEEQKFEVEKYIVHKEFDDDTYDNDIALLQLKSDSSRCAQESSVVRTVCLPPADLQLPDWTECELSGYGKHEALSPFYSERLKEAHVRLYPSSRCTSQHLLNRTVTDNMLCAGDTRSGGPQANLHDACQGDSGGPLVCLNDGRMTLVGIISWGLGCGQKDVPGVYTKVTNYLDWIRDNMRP

- binding to tPA (tPA [1]): not bind
- binding to factor XII (factor XII): not bind
- inhibition of binding of anti-β2GPI auto-antibodies to immobilized β2GPI [5]: minor effect on antibody binding
B1: plasma β2GPI: β2-glycoprotein I purified from fresh human plasma (protein)
chain: GRTCPKPDDLPFSTVVPLKTFYEPGEEITYSCKPGYVSRGGMRKFICPLTGLWPINTLKCTPRVCPFAGILENGAVRYTTFEYPNTISFSCNTGFYLNGADSAKCTEEGKWSPELPVCAPIICPPPSIPTFATLRVYKPSAGNNSLYRDTAVFECLPQHAMFGNDTITCTTHGNWTKLPECREVKCPFPSRPDNGFVNYPAKPTLYYKDKATFGCHDGYSLDGPEEIECTKLGNWSAMPSCKASCKVPVKKATVVYQGERVKIQEKFKNGMLHGDKVSFFCKNKEKKCSYTEDAQCIDGTIEVPKCFKEHSSLAFWKTDASDVKPC
- increased ThT fluorescence [2]: ~2 factor
- ThT fluorescence after exposure to CL vesicles or DXS [3]: increased fluorescence of ThT
- ThT fluorescence enhancement [4]: ~2 times
- stimulation of tPA-mediated conversion of Plg to Pls (tPA [6]): not
